Among the data in US20250084188A1 (published 2025) are EC50 values, retold here.

Residue numbers refer to the chain shown, from its start.

The chains are these.
B1: D2 (IgG) (antibody, V domains shown)
VH: EVQLVESGGGLVQPGGSLRLSCAASGFTFSSYAMHWVRQAPGKGLEWVSAISSSSGTIYYADSVKGRFTISRDNSKNTLYLQMNSLRAEDTAVYYCAKDFGAVFDYWGQGTLVTVSS
VL: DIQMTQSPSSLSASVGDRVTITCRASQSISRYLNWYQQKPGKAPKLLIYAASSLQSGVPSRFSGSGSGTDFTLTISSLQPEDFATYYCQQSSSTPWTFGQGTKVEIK
B2: A7 (IgG) (antibody, V domains shown)
VH: B1 VH with S31D, H35S, A50G, S55G, D99A, F100I, A102S, V103W, F104A, Y106I
VL: DIQMTQSPSSLSASVGDRVTITCRASQDISNYLNWYQQKPGKAPKLLIYAASSLQSGVPSRFSGSGSGTDFTLTISSLQPEDFATYYCQQSYSFPYTFGQGTKVEIK
B3: H1 (IgG) (antibody, V domains shown)
VH: B1 VH with H35S, S52R, S55G, I58T, D99S, F100Q, G101S, A102T, F104A
VL: B2 VL with D28S, Y32W, A51T, S53R, Y96L
B4: 1E12 (IgG) (antibody, V domains shown)
VH: EVQLVESGGGLVQPGGSLRLSCAASGFTFSSYAMHWVRQAPGKGLEWVSAISSSGGTKYYADSVKGRFTISRDNSKNTLYLQMNSLRAEDTAVYYCAKGLQGGAGAFDIWGQGTLVTVSS
VL: B2 VL with D28S, A51T, S53T, Q55H, Y96W
B5: C5 (IgG) (antibody, V domains shown)
VH: EVQLVESGGGLVQPGGSLRLSCAASGFTFSSYAMSWVRQAPGKGLEWVSSISSSSGTTHYADSVKGRFTISRDNSKNTLYLQMNSLRAEDTAVYYCAKGGAFDYWGQGTLVTVSS
VL: B2 VL with N31R, Y32W, S53T, Y96L
B6: F4 (IgG) (antibody, V domains shown)
VH: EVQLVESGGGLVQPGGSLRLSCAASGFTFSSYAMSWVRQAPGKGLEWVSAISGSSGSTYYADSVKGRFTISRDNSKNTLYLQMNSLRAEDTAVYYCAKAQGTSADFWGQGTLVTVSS
VL: B2 VL with D28S, N31R, Y32W, S53R, F94T, Y96W
B7: F2 (IgG) (antibody, V domains shown)
VH: EVQLVESGGGLAQPGGSLRLSCAASGFTFSSYAMHWVRQAPGKGLEWVSSIKSSGGSKNYADSVKGRFTISRDNSKNTLYLQMNSLRAEDTAVYYCAKGYGASFDFWGQGTLVTVSS
VL: B2 VL with N31S, Y32W, S53R, S91A, Y96W
B8: E7 (IgG) (antibody, V domains shown)
VH: EVQLVESGGGLVQPGGSLRLSCAASGFTFSSYAMHWVRQAPGKGLEWVSAISSSGGSIYYADSVKGRFTISRDNSKNTLYLQMNSLRAEDTAVYYCAKQGLSFDIWGQGTLVTVSS
VL: B2 VL with D28S, Y32W, A51T, S53R
B9: A5 (IgG) (antibody, V domains shown)
VH: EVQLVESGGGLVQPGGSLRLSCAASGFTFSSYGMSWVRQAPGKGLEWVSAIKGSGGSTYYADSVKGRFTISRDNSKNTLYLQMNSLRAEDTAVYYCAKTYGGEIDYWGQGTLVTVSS
VL: B2 VL with D28S, N31R, Y32W, A51T, S53T, Y96W
B10: H7 (IgG) (antibody, V domains shown)
VH: EVQLVESGGGLVQPGGSLRLSCAASGFTFSSYGMHWVRQAPGKGLEWVSGISSSGGSKYYADSVKGRFTISRDNSKNTLYLQMNSLRAEDTAVYYCAKHGHQQMDFWGQGTLVTVSS
VL: B2 VL with D28S, N31S, Y32W, S53R, S91T, Y96W

The target in the assay is human chitinase-3-like protein 1 (hCHI3L1) (human, UniProt P36222 22-383). Briefly: ELISA.
Sequence of human chitinase-3-like protein 1 (hCHI3L1) (P36222 22-383): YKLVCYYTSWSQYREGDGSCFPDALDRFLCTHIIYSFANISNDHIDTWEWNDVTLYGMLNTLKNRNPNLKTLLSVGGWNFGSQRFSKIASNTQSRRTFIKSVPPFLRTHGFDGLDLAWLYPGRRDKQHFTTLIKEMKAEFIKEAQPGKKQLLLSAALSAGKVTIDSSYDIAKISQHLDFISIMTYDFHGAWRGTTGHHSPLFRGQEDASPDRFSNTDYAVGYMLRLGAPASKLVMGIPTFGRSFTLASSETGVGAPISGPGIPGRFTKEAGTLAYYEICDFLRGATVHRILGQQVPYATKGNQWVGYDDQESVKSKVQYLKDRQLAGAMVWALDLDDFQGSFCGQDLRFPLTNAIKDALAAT
B1 came in with an EC50 of 0.577 nM. In other words, the sub-nanomolar range.

The molecule B2 displayed an EC50 of 2.05 nM. Next, B3: 0.496 nM. For the molecule B4, the EC50 stood at 0.139 nM. B5 registered an EC50 of 0.093 nM. The result for B6 reads 0.111 nM.

In turn, B7 registered an EC50 of 1.75 nM. Compared with the last molecule, the EC50 is about 16-fold higher.

On to B8, for which the midpoint of the response, the EC50, lay at 0.348 nM. With B9, the midpoint of the response, the EC50, lay at 0.972 nM. As to B10, it took 1.38 nM to reach a half-maximal effect (EC50).
